# Source: publication PMC3965363 (Neuropharmacology, 2014)
# Read-outs that look alike come from different tables or passages of the source.
# Columns and labels:
# [1] = tested on: brain of C57BL/6 mice; test: Brain clearance index; assay type: in vivo, mouse
# [2] = Integrity of 125I-Aβ40 in media without cells; assay type: physicochemical; conditions: 0.1 nM 125I-Aβ40 in media without cells
# [3] = tested on: bEnd3 cells
# [4] = tested on: hCMEC/D3 cells
# [5] = tested on: bEnd3 cells; remark: listed apart in the source
# [6] = tested on: hCMEC/D3 cells; remark: listed apart in the source
# [7] = tested on: bEnd3 cells; remark: listed apart in the source
# [8] = tested on: BBB; conditions: ref Ito et al., 2006; cited from earlier work
# [9] = tested on: human brain; conditions: ref Mawuenyega et al., 2010, cited from earlier work
# [10] = tested on: mouse brain; conditions: ref Barten et al., 2005, Cirrito et al., 2003, cited from earlier work
# [11] = tested on: brain; conditions: ref Shibata et al., 2000; cited from earlier work
# [12] = tested on: bEnd3 cells; test: Aβ40 degradation in bEnd3 cells with IDE or neprilysin inhibitor; assay type: cell-based, mouse; conditions: bEnd3, thiorphan 2 mM
# [13] = tested on: hCMEC/D3 cells; test: Aβ40 degradation in hCMEC/D3 cells with IDE or neprilysin inhibitor; assay type: cell-based, human; conditions: hCMEC/D3, thiorphan 2 mM
molecule,measurement,setting,value
125I-Aβ40: radioiodinated amyloid-β 40 peptide tracer (PerkinElmer),"BCITotal(%), total brain clearance (BBB efflux + degradation)",[1]; mouse,58.7±3.9%
same,"BCIBBB(%), clearance across BBB","[1]; mouse, in vivo",35.6±3.3%
same,"BCIDegradation(%), clearance by brain degradation","[1]; mouse, in vivo",23.1±2.3%
same,clearance across BBB as share of BCITotal(%),"[1]; mouse, in vivo",62%
same,dimer or higher oligomer formation,"[2]; 12 h, 16% bis-tris gel electrophoresis",absence of dimers or higher oligomer formation
same,dissociation of 125I from Aβ40,[2]; investigated time points,insignificant dissociation
same,effect of RAGE inhibition on 125I-Aβ40 degradation,"[3]; bEnd3, RAGE-IgG 5 µg/ml, 0.1 nM, 15 min, P>0.05",not altered
same,effect of RAGE inhibition on 125I-Aβ40 degradation,"[4]; hCMEC/D3, RAGE-IgG 5 µg/ml, 0.1 nM, 12 h, P>0.05",not altered
same,"effect of inhibition of RAGE, P-gp, or LRP1 on degradation during transport","[5]; bEnd3, either direction, RAGE-IgG 5 µg/ml, valspodar 5 µM or RAP 1 µM, 30 min",did not affect
same,effect of inhibition of P-gp on A→B transport,"[5]; bEnd3, valspodar 5 µM pre- and co-incubated, 0.1 nM, 30 min",no alteration
same,"effect of inhibition of RAGE, P-gp, or LRP1 on degradation during transport","[6]; hCMEC/D3, either direction, RAGE-IgG 5 µg/ml, valspodar 5 µM or RAP 1 µM, 12 h",did not affect
same,Intrinsic uptake (Vmax/Km),[7],2848 nL/min
"Aβ42: amyloid-β peptide Aβ42, prone to rapid aggregation",clearance across the BBB compared to Aβ40,[8],slower
"Aβ40: amyloid-β peptide Aβ40, by-product of proteolytic degradation of amyloid precursor protein",effect of P-gp inhibition on brain degradation,"[1]; valspodar 40 µM intracerebral, 30 min, NS in Figure 1C",without altering
same,Aβ40 cleared from the brain per hour,[9]; cognitively normal individuals,about 7%
same,corresponding half-life of Aβ40 in brain,[9]; cognitively normal individuals,~ 10 h
same,Aβ40 cleared from the brain per hour,[9]; patients with AD,5.2%
same,corresponding half-life of Aβ40 in brain,[9]; patients with AD,~ 13 h
same,half-life of human Aβ40 in mouse brain,[10]; PDAPP mice,2 h
same,half-life of human Aβ40 in mouse brain,[10]; Tg2576 mice,0.63 h
same,contribution of CSF flow to overall brain Aβ40 clearance,[11],10–15%
O=C(O)CNC(=O)C(CS)Cc1ccccc1 (centres unmarked) [thiorphan],effect of neprilysin inhibition on Aβ40 degradation,[12],did not show any significant effect
same,effect of neprilysin inhibition on Aβ40 degradation,[13],did not show any significant effect
valspodar,change in 125I-Aβ40 accumulation (P-gp inhibition),"[3]; bEnd3, valspodar 5 µM pre- and co-incubated, 0.1 nM 125I-Aβ40, 15 min, P>0.05",did not cause any significant change
same,effect of P-gp inhibition on 125I-Aβ40 degradation,"[3]; bEnd3, valspodar 5 µM, 0.1 nM 125I-Aβ40, 15 min, P>0.05",no effect
same,effect of P-gp inhibition on 125I-Aβ40 degradation,"[4]; hCMEC/D3, valspodar 5 µM, 0.1 nM 125I-Aβ40, 12 h, P>0.05",no effect
"RAP: an LRP1 inhibitor (receptor-associated protein; Oxford Biomedical Research) (protein, UniProt P30533 35-357, looked up) Alpha-2-macroglobulin …: YSREKNQPKPSPKRESGEEFRMEKLNQLWEKAQRLHLPPVRLAELHADLKIQERDELAWKKLKLDGLDEDGEKEARLIRNLNVILAKYGLDGKKDARQVTSNSLSGTQEDGLDDPRLEKLWHKAKTSGKFSGEELDKLWREFLHHKEKVHEYNVLLETLSRTEEIHENVISPSDLSDIKGSVLHSRHTELKEKLRSINQGLDRLRRVSHQGYSTEAEFEEPRVIDLWDLAQSANLTDKELEAFREELKHFEAKIEKHNHYQKQLEIAHEKLRHAESVGDGERVSRSREKHALLEGRTKELGYTVKKHLQDLSGRISRARHNEL",decrease of cellular level of intact 125I-Aβ40 (LRP1 inhibition),"[3]; bEnd3, RAP 1 µM pre- and co-incubated, 0.1 nM 125I-Aβ40, 15 min, P<0.001",67%
same,decrease of 125I-Aβ40 degradation (LRP1 inhibition),"[3]; bEnd3, RAP 1 µM, 0.1 nM 125I-Aβ40, 15 min, P<0.01",24%
same,decrease of cellular level of intact 125I-Aβ40 (LRP1 inhibition),"[4]; hCMEC/D3, RAP 1 µM pre- and co-incubated, 0.1 nM 125I-Aβ40, 12 h, P<0.001",42%
same,decrease of 125I-Aβ40 degradation (LRP1 inhibition),"[4]; hCMEC/D3, RAP 1 µM, 0.1 nM 125I-Aβ40, 12 h, P<0.01",28%
same,decrease of intact 125I-Aβ40 transport B→A (LRP1 inhibition),"[5]; bEnd3, RAP 1 µM pre- and co-incubated, 0.1 nM 125I-Aβ40, 30 min, P<0.01",42%
same,decrease of intact 125I-Aβ40 transport B→A (LRP1 inhibition),"[6]; hCMEC/D3, RAP 1 µM pre- and co-incubated, 0.1 nM 125I-Aβ40, 12 h, P<0.01",42%
